In the series the target is T1, SBDMmo (sulfur binding domain of Type IV REase MmoMcrA) (Morganella morganii).
T1 chain: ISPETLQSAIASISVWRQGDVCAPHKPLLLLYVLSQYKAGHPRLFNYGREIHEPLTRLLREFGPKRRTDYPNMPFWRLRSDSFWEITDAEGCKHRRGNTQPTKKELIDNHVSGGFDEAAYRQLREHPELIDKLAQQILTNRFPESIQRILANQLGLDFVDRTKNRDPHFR
Put plainly: EMSA. In general terms: In EMSA bound probe runs differently from free probe, usually more slowly.

As for GTCGGCCCCA (ssDNA, phosphorothioate between G4 and G5 (stereochemistry not stated)) [PT-ssDNA GGCC-10F], the binding result is listed as “no binding”.

B1: PT-dsDNA GGCC-10F/10R (dsDNA)
DNA 1: GTCGGCCCCA
DNA 2: TGGGGCCGAC
modifications: phosphorothioate between G4 and G5 of strand 1 (hemi-PT; stereochemistry not stated)
Take B1: the binding result is “binds”.

(Values after PMC9982451.)
